Measured values published in US20200317768A1 (published 2020).

How the values were obtained:
Assay in all cases: SPR (Biacore), KD of SG1 / KD of variant;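 further: relative to parent M103205H795-SG1 carrying the SG1 human heavy chain constant region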
[1] = target: T1, human FcγRIIIaV extracellular domain, C-terminal His-tag (human, UniProt P08637 17-208)
T1 construct: also called FcgRIIIaV; not shown: His-tag added to C-terminus

[2] = target: T2, human FcγRIIb extracellular domain, C-terminal His-tag (human, UniProt P31994 43-217)
T2 construct: also called FcgRIIb (human); not shown: His-tag added to C-terminus
T2 sequence: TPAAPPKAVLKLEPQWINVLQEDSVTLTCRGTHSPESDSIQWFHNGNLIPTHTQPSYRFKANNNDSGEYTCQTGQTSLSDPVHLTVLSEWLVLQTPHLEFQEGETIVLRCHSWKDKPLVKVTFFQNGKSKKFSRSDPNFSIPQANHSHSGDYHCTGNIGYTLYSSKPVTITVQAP

[3] = target: T3, cynomolgus monkey FcγRIIb extracellular domain, C-terminal His-tag (cynomolgus monkey)
T3 construct: also called cyno FcγRIIb; cynoFcγRIIb; not shown: His-tag added to C-terminus
T3 chain: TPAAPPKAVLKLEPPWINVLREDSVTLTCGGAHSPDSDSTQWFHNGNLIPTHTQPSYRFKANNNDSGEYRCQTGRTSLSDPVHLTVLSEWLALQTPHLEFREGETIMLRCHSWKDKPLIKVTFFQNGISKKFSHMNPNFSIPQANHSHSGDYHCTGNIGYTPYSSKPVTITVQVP

[4] = target: T4, human FcγRIIaH extracellular domain, C-terminal His-tag (human, UniProt P12318 34-217)
T4 construct: also called human FcγRIIa (type H); FcgRIIaH; not shown: His-tag added to C-terminus
T4 sequence: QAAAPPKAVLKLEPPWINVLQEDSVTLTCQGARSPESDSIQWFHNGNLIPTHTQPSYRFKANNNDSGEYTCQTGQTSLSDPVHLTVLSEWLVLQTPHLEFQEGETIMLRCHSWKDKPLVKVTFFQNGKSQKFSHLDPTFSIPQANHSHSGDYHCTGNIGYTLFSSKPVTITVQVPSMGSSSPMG

[5] = target: T5, cynomolgus monkey FcγRIIa2 extracellular domain, C-terminal His-tag (cynomolgus monkey)
T5 construct: also called cyno FcγRIIa2; cynoFcgRIIa2; not shown: His-tag added to C-terminus
T5 chain: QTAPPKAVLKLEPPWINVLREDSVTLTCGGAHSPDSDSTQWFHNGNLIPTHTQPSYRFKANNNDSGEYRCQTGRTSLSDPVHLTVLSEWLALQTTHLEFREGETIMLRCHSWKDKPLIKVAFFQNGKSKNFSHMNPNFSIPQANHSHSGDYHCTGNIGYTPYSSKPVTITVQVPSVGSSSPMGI

[6] = target: T6, cynomolgus monkey FcγRIIa1 extracellular domain, C-terminal His-tag (cynomolgus monkey)
T6 construct: also called cyno FcγRIIa1; cynoFcgRIIa1; not shown: His-tag added to C-terminus
T6 chain: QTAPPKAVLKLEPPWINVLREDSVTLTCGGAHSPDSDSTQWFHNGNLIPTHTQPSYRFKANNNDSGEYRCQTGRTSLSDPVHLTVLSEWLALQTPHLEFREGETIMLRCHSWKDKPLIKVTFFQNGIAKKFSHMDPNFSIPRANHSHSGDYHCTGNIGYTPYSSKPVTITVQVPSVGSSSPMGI

[7] = target: T7, cynomolgus monkey FcγRIIa3 extracellular domain, C-terminal His-tag (cynomolgus monkey)
T7 construct: also called cyno FcγRIIa3; cynoFcgRIIa3; not shown: His-tag added to C-terminus
T7 chain: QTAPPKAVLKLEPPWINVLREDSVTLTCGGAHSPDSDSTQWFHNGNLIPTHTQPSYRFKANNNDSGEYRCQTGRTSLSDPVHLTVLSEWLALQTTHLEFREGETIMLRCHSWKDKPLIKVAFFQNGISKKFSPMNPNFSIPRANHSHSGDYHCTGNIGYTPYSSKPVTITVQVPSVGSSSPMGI

[8] = target: T8, human FcγRIIaR extracellular domain, C-terminal His-tag (human, UniProt P12318 34-217)
T8 construct: also called human FcγRIIa (type R); FcgRIIaR; not shown: His-tag added to C-terminus
T8 chain: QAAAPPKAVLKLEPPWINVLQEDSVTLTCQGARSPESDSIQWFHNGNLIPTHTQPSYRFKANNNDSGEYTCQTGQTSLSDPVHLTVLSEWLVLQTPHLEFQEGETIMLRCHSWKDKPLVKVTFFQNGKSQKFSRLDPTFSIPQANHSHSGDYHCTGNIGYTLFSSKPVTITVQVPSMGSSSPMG

T1 sequence (P08637 17-208 F176V): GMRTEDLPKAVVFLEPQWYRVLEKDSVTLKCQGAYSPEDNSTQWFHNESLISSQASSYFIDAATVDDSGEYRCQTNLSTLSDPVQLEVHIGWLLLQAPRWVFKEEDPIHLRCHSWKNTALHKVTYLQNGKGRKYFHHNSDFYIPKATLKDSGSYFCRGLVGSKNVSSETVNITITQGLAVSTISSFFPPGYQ

B1: M103205H795-MY311/M103202L889-SK1 (antibody, human IgG1, kappa)
heavy: QVTLKESGPVLVKPTETLTLTCTVSGIDLSHDDISWVRQAPGKGLEWVGIISYAGSTYYASWAKGRLTISKDTSKNQVVLTMTNMDPVDTATYYCARGVPAYSHGGDLWGQGTLVTVSSASTKGPSVFPLAPSSKSTSGGTAALGCLVKDYFPEPVTVSWNSGALTSGVHTFPAVLQSSGLYSLSSVVTVPSSSLGTQTYICNVNHKPSNTKVDKKVEPKSCDKTHTCPPCPAPELLTGPSVFLFPPKPKDTLMISRTPEVTCVVVDVSEEDPEVKFNWYVDGVEVHNAKTKPREELYNSTYRVVSVLTVLHQDWLNGKEYKCKVSNKALPKPIEKTISKAKGQPREPQVYTLPPSREEMTKNQVSLTCLVKGFYPSDIAVEWESNGQPENNYKTTPPVLDSDGSFFLYSKLTVDKSRWQQGNVFSCSVMHEALHNHYTQKSLSLSP
light: DIVMTQSPATLSLSPGERATLSCTSSQSVYHANWLSWFQQKPGQPPKLLIYWASTLAYGVPSRFSGSGSGTDFTLTISSLQPEDAATYYCAGGYGGGRYAFGQGTKVEIKRTVAAPSVFIFPPSDEQLKSGTASVVCLLNNFYPREAKVQWKVDNALQSGNSQESVTEQDSKDSTYSLSSTLTLSKADYEKHKVYACEVTHQGLSSPVTKSFNRGEC
With B1 the “KD fold (SG1 = 1)” value [1] was 0.11 fold, the “KD fold (SG1 = 1)” value [2] was 2.2 fold and the “KD fold (SG1 = 1)” value [3] was 2.3 fold. For the same binder, the “KD fold (SG1 = 1)” value [4] was 3.5 fold, the “KD fold (SG1 = 1)” value [5] was 1.5 fold and the “KD fold (SG1 = 1)” value [6] was 1.4 fold. For the same binder, the “KD fold (SG1 = 1)” value [7] was 2 fold and the “KD fold (SG1 = 1)” value [8] was 2.4 fold.

B2: M103205H795-MY312/M103202L889-SK1 (antibody, human IgG1, kappa)
heavy: QVTLKESGPVLVKPTETLTLTCTVSGIDLSHDDISWVRQAPGKGLEWVGIISYAGSTYYASWAKGRLTISKDTSKNQVVLTMTNMDPVDTATYYCARGVPAYSHGGDLWGQGTLVTVSSASTKGPSVFPLAPSSKSTSGGTAALGCLVKDYFPEPVTVSWNSGALTSGVHTFPAVLQSSGLYSLSSVVTVPSSSLGTQTYICNVNHKPSNTKVDKKVEPKSCDKTHTCPPCPAPELLTGPSVFLFPPKPKDTLMISRTPEVTCVVVDVSEEDPEVKFNWYVDGVEVHNAKTKPREEQYNSTYRVVSVLTVLHQDWLNGKEYKCKVSNTALPKPIEKTISKAKGQPREPQVYTLPPSREEMTKNQVSLTCLVKGFYPSDIAVEWESNGQPENNYKTTPMVLDSDGSFFLYSKLTVDKSRWQQGNVFSCSVMHEALHNHYTQKSLSLSP
light: DIVMTQSPATLSLSPGERATLSCTSSQSVYHANWLSWFQQKPGQPPKLLIYWASTLAYGVPSRFSGSGSGTDFTLTISSLQPEDAATYYCAGGYGGGRYAFGQGTKVEIKRTVAAPSVFIFPPSDEQLKSGTASVVCLLNNFYPREAKVQWKVDNALQSGNSQESVTEQDSKDSTYSLSSTLTLSKADYEKHKVYACEVTHQGLSSPVTKSFNRGEC
For B2, the “KD fold (SG1 = 1)” value [1] was 0.29 fold, the “KD fold (SG1 = 1)” value [2] was 4.2 fold and the “KD fold (SG1 = 1)” value [3] was 4.5 fold. For the same binder, the “KD fold (SG1 = 1)” value [4] was 6.3 fold, the “KD fold (SG1 = 1)” value [5] was 3.4 fold and the “KD fold (SG1 = 1)” value [6] was 2.3 fold. For the same binder, the “KD fold (SG1 = 1)” value [7] was 4.6 fold and the “KD fold (SG1 = 1)” value [8] was 6.5 fold.

B3: M103205H795-MY318/M103202L889-SK1 (antibody, human IgG1, kappa)
heavy: QVTLKESGPVLVKPTETLTLTCTVSGIDLSHDDISWVRQAPGKGLEWVGIISYAGSTYYASWAKGRLTISKDTSKNQVVLTMTNMDPVDTATYYCARGVPAYSHGGDLWGQGTLVTVSSASTKGPSVFPLAPSSKSTSGGTAALGCLVKDYFPEPVTVSWNSGALTSGVHTFPAVLQSSGLYSLSSVVTVPSSSLGTQTYICNVNHKPSNTKVDKKVEPKSCDKTHTCPPCPAPELLLGPSVFLFPPKPKDTLMISRTPEVTCVVVDVSEEDPEVKFNWYVDGVEVHNAKTKPREEQYNSTYRVVSVLTVLHQDWLNGKEYKCKVSNTALPKPIEKTISKAKGQPREPQVYTLPPSREEMTKNQVSLTCLVKGFYPSDIAVEWESNGQPENNYKTTPMVLDSDGSFFLYSKLTVDKSRWQQGNVFSCSVMHEALHNHYTQKSLSLSP
light: DIVMTQSPATLSLSPGERATLSCTSSQSVYHANWLSWFQQKPGQPPKLLIYWASTLAYGVPSRFSGSGSGTDFTLTISSLQPEDAATYYCAGGYGGGRYAFGQGTKVEIKRTVAAPSVFIFPPSDEQLKSGTASVVCLLNNFYPREAKVQWKVDNALQSGNSQESVTEQDSKDSTYSLSSTLTLSKADYEKHKVYACEVTHQGLSSPVTKSFNRGEC
B3 was tested, and the “KD fold (SG1 = 1)” value [1] was 0.05 fold, the “KD fold (SG1 = 1)” value [2] was 1 fold and the “KD fold (SG1 = 1)” value [3] was 0.8 fold. The “KD fold (SG1 = 1)” value [4] was 0.6 fold, the “KD fold (SG1 = 1)” value [5] was 0.7 fold and the “KD fold (SG1 = 1)” value [6] was 0.4 fold. For the same binder, the “KD fold (SG1 = 1)” value [7] was 0.5 fold and the “KD fold (SG1 = 1)” value [8] was 0.8 fold.

B4: M103205H795-MY321/M103202L889-SK1 (antibody, human IgG1, kappa)
heavy: QVTLKESGPVLVKPTETLTLTCTVSGIDLSHDDISWVRQAPGKGLEWVGIISYAGSTYYASWAKGRLTISKDTSKNQVVLTMTNMDPVDTATYYCARGVPAYSHGGDLWGQGTLVTVSSASTKGPSVFPLAPSSKSTSGGTAALGCLVKDYFPEPVTVSWNSGALTSGVHTFPAVLQSSGLYSLSSVVTVPSSSLGTQTYICNVNHKPSNTKVDKKVEPKSCDKTHTCPPCPAPELLHGPSVFLFPPKPKDTLMISRTPEVTCVVVDVSDEDPEVKFNWYVDGVEVHNAKTKPREEQYNSTYRVVSVLTVLHQDWLNGKEYKCKVSNKALPKPIEKTISKAKGQPREPQVYTLPPSREEMTKNQVSLTCLVKGFYPSDIAVEWESNGQPENNYKTTPMVLDSDGSFFLYSKLTVDKSRWQQGNVFSCSVMHEALHNHYTQKSLSLSP
light: DIVMTQSPATLSLSPGERATLSCTSSQSVYHANWLSWFQQKPGQPPKLLIYWASTLAYGVPSRFSGSGSGTDFTLTISSLQPEDAATYYCAGGYGGGRYAFGQGTKVEIKRTVAAPSVFIFPPSDEQLKSGTASVVCLLNNFYPREAKVQWKVDNALQSGNSQESVTEQDSKDSTYSLSSTLTLSKADYEKHKVYACEVTHQGLSSPVTKSFNRGEC
B4 was tested, and the “KD fold (SG1 = 1)” value [1] was 0.74 fold, the “KD fold (SG1 = 1)” value [2] was 1.8 fold and the “KD fold (SG1 = 1)” value [3] was 2.8 fold. The “KD fold (SG1 = 1)” value [4] was 3.7 fold, the “KD fold (SG1 = 1)” value [5] was 2.3 fold and the “KD fold (SG1 = 1)” value [6] was 1.4 fold. The “KD fold (SG1 = 1)” value [7] was 3.9 fold and the “KD fold (SG1 = 1)” value [8] was 2.9 fold.
